From patent publication US20250059270A1 (SESEN BIO, published 2025) come the findings set out here.

Changes are numbered by the printed parent chain. Names and notes keep the numbering of the source.

The target of experiment [1] is T1, human IL-6 (human, UniProt P05231 30-212). The experiment can be described thus: cell-based or functional assay.
Experiment [2] has as its target T2, rabbit IL-6 (rabbit, UniProt Q9MZR1 27-241, limits assumed).
T2 sequence (looked up): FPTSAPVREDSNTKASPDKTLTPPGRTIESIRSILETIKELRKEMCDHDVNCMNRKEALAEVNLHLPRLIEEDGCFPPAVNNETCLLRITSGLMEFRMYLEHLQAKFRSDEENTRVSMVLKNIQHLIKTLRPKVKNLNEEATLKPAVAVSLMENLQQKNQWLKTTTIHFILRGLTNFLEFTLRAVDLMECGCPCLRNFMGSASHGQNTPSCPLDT
Nature of the experiment: statement in the rabbit PK example; no assay named.

The target in experiment [3] is T1, human IL-6. Nature of the experiment: cell-based or functional assay. This is another data set of the same source.
The target of a further experiment is hyper IL-6. The experiment can be described thus: cell-based or functional assay.
The target of experiment [4] is T1, human IL-6. The experiment can be described thus: functional epitope mapping by ELISA.
In experiment [5] the target is T1, human IL-6. Nature of the experiment: yeast surface display of Fab, flow cytometry (APC-A = bound biotinylated IL-6, FITC-A = display) after overnight competition with 2 µM IL-6.
For the next experiment, the target named is T3, dog IL-6 (dog, UniProt P41323 21-207).
T3 construct: also called canine IL-6
T3 sequence (looked up): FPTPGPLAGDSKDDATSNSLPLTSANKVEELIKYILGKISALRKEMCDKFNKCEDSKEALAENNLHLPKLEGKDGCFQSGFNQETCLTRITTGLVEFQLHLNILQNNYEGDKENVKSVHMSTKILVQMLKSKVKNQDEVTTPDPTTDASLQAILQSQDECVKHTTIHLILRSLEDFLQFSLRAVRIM
Nature of the experiment: monovalent affinity, method not stated.

For the next experiment, the target named is T4, mouse IL-6 (mouse, UniProt P08505 25-211).
T4 construct: also called rodent IL-6
T4 sequence (looked up): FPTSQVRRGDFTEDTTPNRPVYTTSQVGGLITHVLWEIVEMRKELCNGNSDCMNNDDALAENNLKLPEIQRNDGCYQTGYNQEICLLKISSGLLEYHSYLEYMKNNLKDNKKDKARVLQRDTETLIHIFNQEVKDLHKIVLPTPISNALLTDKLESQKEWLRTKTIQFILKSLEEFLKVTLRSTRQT
Nature of the experiment: monovalent affinity, method not stated.

In experiment [6] the target is T2, rabbit IL-6. The experiment can be described thus: monovalent affinity, method not stated.
A further experiment deals with T5, rat IL-6 (rat, UniProt P20607 25-211).
T5 construct: also called rodent IL-6
T5 sequence (looked up): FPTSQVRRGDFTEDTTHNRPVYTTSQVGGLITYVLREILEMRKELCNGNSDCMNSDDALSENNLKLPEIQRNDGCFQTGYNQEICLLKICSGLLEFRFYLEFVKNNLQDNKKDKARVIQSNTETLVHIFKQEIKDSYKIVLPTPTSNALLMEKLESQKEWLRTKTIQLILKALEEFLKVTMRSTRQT
The experiment can be described thus: monovalent affinity, method not stated.

For experiment [7], the target named is T1, human IL-6. Nature of the experiment: yeast system (yeast display, biotinylated human IL-6); original humanized h64, before affinity maturation; yeast system.

B1: EBI-029 IgG2 (antibody)
heavy: QVQLVQSGAEVKKPGSSVKVSCKASGYALSNYLIEWVRQAPGQGLEWMGVITPGSGTINYAQKFQGRVTITADESTSTAYMELSSLRSEDTAVYYCARSRWDPLYYYALEYWGQGTTVTVSSASTKGPSVFPLAPCSRSTSESTAALGCLVKDYFPEPVTVSWNSGALTSGVHTFPAVLQSSGLYSLSSVVTVPSSNFGTQTYTCNVDHKPSNTKVDKTVERKCCVECPPCPAPPVAGPSVFLFPPKPKDTLMISRTPEVTCVVVDVSHEDPEVQFNWYVDGVEVHNAKTKPREEQFNSTFRVVSVLTVVHQDWLNGKEYKCKVSNKGLPAPIEKTISKTKGQPREPQVYTLPPSREEMTKNQVSLTCLVKGFYPSDIAVEWESNGQPENNYKTTPPMLDSDGSFFLYSKLTVDKSRWQQGNVFSCSVMHEALHNHYTQKSLSLSPGK
light: DIVMTQSPDSLAVSLGERATINCRASESVDNYGIPFMNWYQQKPGQPPKLLIYAASNRGSGVPDRFSGSGSGTDFTLTISSLQAEDVAVYYCQQSEEVPLTFGQGTKLEIKRTVAAPSVFIFPPSDEQLKSGTASVVCLLNNFYPREAKVQWKVDNALQSGNSQESVTEQDSKDSTYSLSSTLTLSKADYEKHKVYACEVTHQGLSSPVTKSFNRGEC
notes: also called 018IgG2
Consider B1, for which, in the experiment with human IL-6 [1], the “IC50, HEK-Blue IL6 reporter cells, 20 pM IL-6” value came out at 47 pM. The binding result with rabbit IL-6 [2] is “no binding”.

B2: EBI-029 IgG2-H311A (antibody)
heavy: B1 heavy with H311A
light: B1 light
notes: also called EBI-029-H311A
Consider B2, for which the binding result with rabbit IL-6 [2] was “no binding”.

B3: EBI-031 (EBI-030 IgG2-H311A) (antibody)
heavy: B1 heavy with A28V, S30P, I51T, S55G, H311A
light: B1 light
notes: also called EBI-030-H311A
Turning to B3, in the experiment with human IL-6 [3], the “IC50, cis-signaling, HEK-Blue IL6 cells, 20 pM free IL-6” value stood at 14.2 pM; the “IC50, fold less than that of EBI-029, HEK-Blue IL6” value was greater than 75 fold; the “IC90, fold less than that of EBI-029, HEK-Blue IL6” value is roughly 350 fold; the “fold decrease in IC50 compared with EBI-029, HEK-Blue IL6” value is roughly 50 fold. Besides, in the experiment with human IL-6 [3], the “fold decrease in IC90 compared with EBI-029, HEK-Blue IL6” value was greater than 100 fold and the “fold greater potency than tocilizumab, cis-signaling, HEK-Blue IL6 cells” value is greater than 900 fold. Besides, the “IC50, trans-signaling, HEK-Blue IL6 cells, 200 pM hyper IL-6” value with hyper IL-6 came to 32 pM. In the experiment with human IL-6 [1], the “IC50, HEK-Blue IL6 reporter cells, 20 pM IL-6” value stood at 0.6 pM. In addition, the binding result with rabbit IL-6 [2] is on record as “no binding”.

B4: EBI-030 IgG2 (antibody)
heavy: B1 heavy with A28V, S30P, I51T, S55G
light: B1 light
Consider B4, for which, in the experiment with human IL-6 [3], the “IC50, fold less than that of EBI-029, HEK-Blue IL6 (EBI-030 produced in HEK cells)” value is greater than 50 fold; the “IC90, fold less than that of EBI-029, HEK-Blue IL6 (EBI-030 produced in HEK cells)” value is roughly 4000 fold; the “fold decrease in IC50 compared with EBI-029, HEK-Blue IL6” value was roughly 50 fold; the “fold decrease in IC90 compared with EBI-029, HEK-Blue IL6” value was greater than 100 fold. Further, in the experiment with human IL-6 [1], the “IC50, HEK-Blue IL6 reporter cells, 20 pM IL-6 (EBI-030 CHO, stable CHO pool)” value amounted to 1.4 pM and the “IC50, HEK-Blue IL6 reporter cells, 20 pM IL-6 (EBI-030 from HEK-6E cells)” value worked out at 0.9 pM. Moreover, in the experiment with rabbit IL-6 [2], the binding result is “no binding”.

B5: murine 64 antibody (hybridoma 64, subclone 64.58) (antibody, V domains shown)
VH: QVQLQQSGAELVRPGTSVKVSCKASGYAFSNYLIEWVKQRPGQGLEWIGVITPGSGTINYNEKFKGKAVLTADKSSSTVYMQLSSLTSDDSAVYFCAKSRWDPLYYYALEYWGQGTSVTVSS
VL: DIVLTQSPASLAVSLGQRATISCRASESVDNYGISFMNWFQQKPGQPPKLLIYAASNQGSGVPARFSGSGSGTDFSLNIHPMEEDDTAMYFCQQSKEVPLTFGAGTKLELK
notes: Murine monoclonal from a hybridoma; also called m64
For B5, the binding result in the experiment with human IL-6 [4] is “binds”.

B6: EBI-029 Fab variant I51T/S55G (Fab, V domains shown)
VH: QVQLVQSGAEVKKPGSSVKVSCKASGYALSNYLIEWVRQAPGQGLEWMGVTTPGGGTINYAQKFQGRVTITADESTSTAYMELSSLRSEDTAVYYCARSRWDPLYYYALEYWGQGTTVTVSS
VL: DIVMTQSPDSLAVSLGERATINCRASESVDNYGIPFMNWYQQKPGQPPKLLIYAASNRGSGVPDRFSGSGSGTDFTLTISSLQAEDVAVYYCQQSEEVPLTFGQGTKLEIKR
For the molecule B6, the “Fold increase in binding/display over wt” value in the experiment with human IL-6 [5] came to 1.92 fold.

B7: 018 Fab (Fab, V domains shown)
VH: B6 VH with T51I, G55S
VL: B6 VL
notes: Fab with CK and IgG1 CH1 domains; also called Fab fragment of the h64-1.4 humanized antibody
For the molecule B7, the Kd with dog IL-6, with mouse IL-6, with rabbit IL-6 [6] and with rat IL-6 was greater than 1000 nM each time.

B8: h64 IgG (humanized 64, human IgG1) (antibody, V domains shown)
VH: B6 VH with L29F, T51I, G55S
VL: DIVMTQSPDSLAVSLGERATINCRASESVDNYGISFMNWYQQKPGQPPKLLIYAASNQGSGVPDRFSGSGSGTDFTLTISSLQAEDVAVYYCQQSKEVPLTFGQGTKLEIK
notes: Expressed as inline fusions with the human IgG1 constant domains; also called the original humanized molecule; original h64 antibody
Turning to B8, in the experiment with human IL-6 [7], the Kd stood at 0.343 nM.

B9: EBI-030 Fab (A28V/S30P/I51T/S55G) (Fab, V domains shown)
VH: B6 VH with A28V, S30P
VL: B6 VL
notes: IgG1 Fab; also called A28V/S30P/I51T/S55G (EBI-030)
Consider B9, for which the “Fold increase in binding/display over wt” value with human IL-6 [5] came out at 4 fold.

B10: EBI-029 Fab variant S30P/I51T/S55G (Fab, V domains shown)
VH: B6 VH with S30P
VL: B6 VL
Regarding B10, the “Fold increase in binding/display over wt” value in the experiment with human IL-6 [5] worked out at 2.52 fold.

B11: EBI-029 Fab (020 Fab) (Fab, V domains shown)
VH: B6 VH with T51I, G55S
VL: B6 VL
notes: 018 Fab heavy chain with DKTHT added at the C-terminus; also called the 020 molecule; WT (EBI-029)
For B11, in the experiment with rabbit IL-6 [2], the binding result was “no binding”.

B12: EBI-029 Fab variant A28V/I51T/S55G (Fab, V domains shown)
VH: B6 VH with A28V
VL: B6 VL
With B12, in the experiment with human IL-6 [5], the “Fold increase in binding/display over wt” value stood at 3.1 fold.
